Reference: the supplement of paper PMC9112550, “Optimization of the antimicrobial peptide Bac7 by deep mutational scanning” (BMC Biology, 2022)

Each sequence was assayed on Escherichia coli TOP10 (assay: shrunken log2 fold change of peptide-encoding DNA abundance (4.5 h post-induction vs induction); higher = less antimicrobial activity (less host growth inhibition)). Details: time post-induction: 4.5 h; library: site-saturation at positions 5, 18, 19, 20.
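Also: peptides expressed intracellularly from a pBAD plasmid library in pooled LB shake-flask culture, induced with 0.3% L-arabinose, DNA abundance read by NGS, three biological replicates, DESeq2 with apeglm shrinkage.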

Point of comparison: RRIRRRPPRLPRPRPRPSYRPRP, “shrunken log2 fold change” value -0.142. Against it:
- RRIRQRPPRLPRPRPRPLHGPRP — within 0.2 log units, 0.0407
- RRIRHRPPRLPRPRPRPLTCPRP — within 0.2 log units, -0.0216
- RRIRYRPPRLPRPRPRPYDRPRP — within 0.2 log units, -0.039
- RRIRQRPPRLPRPRPRPRHEPRP — within 0.2 log units, -0.131
- RRIRPRPPRLPRPRPRPYPCPRP — within 0.2 log units, -0.134
- RRIRERPPRLPRPRPRPYQPPRP — within 0.2 log units, 0.0223
- RRIRERPPRLPRPRPRPIPRPRP — within 0.2 log units, -0.138
- RRIRIRPPRLPRPRPRPICEPRP — within 0.2 log units, -0.0283
- RRIRFRPPRLPRPRPRPTEDPRP — within 0.2 log units, 0.0193
- RRIRWRPPRLPRPRPRPSPGPRP — within 0.2 log units, -0.0366
- RRIRGRPPRLPRPRPRPSSWPRP — higher, 1.05
- RRIRNRPPRLPRPRPRPLYDPRP — within 0.2 log units, -0.0765
- RRIRNRPPRLPRPRPRPWRCPRP — within 0.2 log units, -0.0792
- RRIRKRPPRLPRPRPRPHPWPRP — higher, 0.353
- RRIRQRPPRLPRPRPRPKNRPRP — higher, 0.0773
- RRIRNRPPRLPRPRPRPMAVPRP — within 0.2 log units, -0.0402
- RRIRDRPPRLPRPRPRPDQDPRP — higher, 0.399
- RRIRKRPPRLPRPRPRPKCMPRP — higher, 0.15
- RRIRTRPPRLPRPRPRPHNQPRP — lower, -0.369
- RRIRYRPPRLPRPRPRPGGKPRP — within 0.2 log units, 0.0336
- RRIRGRPPRLPRPRPRPCVCPRP — higher, 0.617
- RRIRLRPPRLPRPRPRPSGSPRP — higher, 0.182
- RRIRHRPPRLPRPRPRPAILPRP — within 0.2 log units, -0.171
- RRIRTRPPRLPRPRPRPVVAPRP — higher, 0.418
- RRIRFRPPRLPRPRPRPQYSPRP — lower, -0.581
- RRIRPRPPRLPRPRPRPPHIPRP — higher, 0.806
- RRIRVRPPRLPRPRPRPTNKPRP — within 0.2 log units, -0.254
- RRIRQRPPRLPRPRPRPGAFPRP — within 0.2 log units, -0.158
- RRIRMRPPRLPRPRPRPPHWPRP — higher, 0.898
- RRIRERPPRLPRPRPRPEVWPRP — higher, 0.4
- RRIRKRPPRLPRPRPRPMHDPRP — higher, 0.321
- RRIRGRPPRLPRPRPRPKFSPRP — higher, 0.392
- RRIRFRPPRLPRPRPRPTLYPRP — within 0.2 log units, -0.189
- RRIRKRPPRLPRPRPRPGLCPRP — higher, 0.168
- RRIRPRPPRLPRPRPRPVRDPRP — higher, 0.146
- RRIRKRPPRLPRPRPRPEFWPRP — higher, 0.807
- RRIRRRPPRLPRPRPRPHTQPRP — higher, 0.573
- RRIRQRPPRLPRPRPRPPQEPRP — within 0.2 log units, -0.00749
- RRIRKRPPRLPRPRPRPMDIPRP — higher, 0.0655
- RRIRPRPPRLPRPRPRPEMTPRP — within 0.2 log units, -0.0182
- RRIRDRPPRLPRPRPRPMRGPRP — higher, 0.937
- RRIRHRPPRLPRPRPRPWYFPRP — lower, -0.813
- RRIRSRPPRLPRPRPRPEDHPRP — higher, 0.146
- RRIRVRPPRLPRPRPRPWMIPRP — within 0.2 log units, -0.0467
- RRIRKRPPRLPRPRPRPYAKPRP — within 0.2 log units, -0.0729
- RRIRRRPPRLPRPRPRPFQTPRP — within 0.2 log units, 0.0413
- RRIRKRPPRLPRPRPRPDAEPRP — higher, 1.59
- RRIRSRPPRLPRPRPRPFDRPRP — within 0.2 log units, -0.118
- RRIRRRPPRLPRPRPRPVLNPRP — higher, 0.0825
- RRIRIRPPRLPRPRPRPYNGPRP — within 0.2 log units, -0.0564
- RRIRNRPPRLPRPRPRPKVCPRP — within 0.2 log units, -0.0345
- RRIRARPPRLPRPRPRPQNAPRP — higher, 0.243
- RRIRPRPPRLPRPRPRPQYLPRP — lower, -0.769
- RRIRPRPPRLPRPRPRPDHNPRP — lower, -0.675
- RRIRTRPPRLPRPRPRPISEPRP — within 0.2 log units, 0.00252
- RRIRIRPPRLPRPRPRPEFIPRP — within 0.2 log units, -0.00702
- RRIRLRPPRLPRPRPRPPMLPRP — within 0.2 log units, -0.0338
- RRIRYRPPRLPRPRPRPERQPRP — within 0.2 log units, -0.01
- RRIRQRPPRLPRPRPRPSEAPRP — higher, 0.17
- RRIRWRPPRLPRPRPRPQGRPRP — higher, 0.64
- RRIRIRPPRLPRPRPRPHIIPRP — lower, -0.614
- RRIRNRPPRLPRPRPRPGNSPRP — within 0.2 log units, -0.0208
- RRIRGRPPRLPRPRPRPPREPRP — higher, 1.3
- RRIRHRPPRLPRPRPRPLHEPRP — higher, 0.0601
- RRIRARPPRLPRPRPRPAEKPRP — within 0.2 log units, -0.0197
- RRIRSRPPRLPRPRPRPQECPRP — within 0.2 log units, -0.0587
- RRIRGRPPRLPRPRPRPEQRPRP — higher, 0.926
- RRIRPRPPRLPRPRPRPILKPRP — within 0.2 log units, -0.14
- RRIRHRPPRLPRPRPRPSMGPRP — within 0.2 log units, -0.149
- RRIRVRPPRLPRPRPRPYDGPRP — within 0.2 log units, -0.00822
- RRIRVRPPRLPRPRPRPYHSPRP — lower, -1.02
- RRIRLRPPRLPRPRPRPRSWPRP — higher, 0.297
- RRIRARPPRLPRPRPRPPESPRP — higher, 1.02
- RRIRRRPPRLPRPRPRPMTIPRP — within 0.2 log units, 0.0416
